In patent US20110110857:
Changes are numbered by the printed parent chain. In names and notes the source's numbering stands.

Experiments:
[1] = target: bovine serum albumin, P02769
[2] = target: C. muridarum Major Outer Membrane Protein (MOMP)

Chain of bovine serum albumin, P02769 (P02769 25-607): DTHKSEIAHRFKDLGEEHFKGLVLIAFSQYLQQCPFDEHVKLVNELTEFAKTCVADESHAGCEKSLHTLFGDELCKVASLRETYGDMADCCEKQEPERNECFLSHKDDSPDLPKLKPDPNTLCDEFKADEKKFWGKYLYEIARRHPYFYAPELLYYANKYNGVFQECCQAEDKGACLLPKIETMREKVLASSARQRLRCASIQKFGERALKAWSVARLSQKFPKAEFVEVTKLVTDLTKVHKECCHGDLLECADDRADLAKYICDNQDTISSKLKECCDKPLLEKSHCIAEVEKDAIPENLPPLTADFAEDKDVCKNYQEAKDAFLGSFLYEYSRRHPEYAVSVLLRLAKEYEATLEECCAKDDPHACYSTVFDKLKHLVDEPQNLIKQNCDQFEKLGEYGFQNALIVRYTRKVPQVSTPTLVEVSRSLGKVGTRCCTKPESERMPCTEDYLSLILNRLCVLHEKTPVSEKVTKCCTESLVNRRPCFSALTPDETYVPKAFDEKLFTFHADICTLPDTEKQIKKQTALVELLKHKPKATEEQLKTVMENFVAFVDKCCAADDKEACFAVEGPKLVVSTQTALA

B1: wild-type C. trachomatis HtrA (CT823) (protein)
chain: SPMLGYSASKKDSKADICLAVSSGDQEVSQEDLLKEVSRGFSRVAAKATPGVVYIENFPKTGNQAIASPGNKRGFQENPFDYFNDEFFNRFFGLPSHREQQRPQQRDAVRGTGFIVSEDGYVVTNHHVVEDAGKIHVTLHDGQKYTAKIVGLDPKTDLAVIKIQAEKLPFLTFGNSDQLQIGDWAIAIGNPFGLQATVTVGVISAKGRNQLHIVDFEDFIQTDAAINPGNSGGPLLNINGQVIGVNTAIVSGSGGYIGIGFAIPSLMAKRVIDQLISDGQVTRGFLGVTLQPIDSELATCYKLEKVYGALVTDVVKGSPAEKAGLRQEDVIVAYNGKEVESLSALRNAISLMMPGTRVVLKIVREGKTIEIPVTVTQIPTEDGVSALQKMGVRVQNITPEICKKLGLAADTRGILVVAVEAGSPAASAGVAPGQLILAVNRQRVASVEELNQVLKNSKGENVLLMVSQGDVVRFIVLKSDE
B1 was tested, and the “protease digestion of BSA, overnight at 37 C, SDS-PAGE/Coomassie, with DTT” value [1] was “strong protease activity in the presence of the reducing agent DTT (dithiothreitol) as shown by degradation of the intact BSA protein”.

B2: wild type C. muridarum HtrA (TC0210) (protein)
chain: SPMLGYSAPKKDSSTGICLAASQSDRELSQEDLLKEVSRGFSKVAAQATPGVVYIENFPKTGSQAIASPGNKRGFQENPFDYFNDEFFNRFFGLPSHREQPRPQQRDAVRGTGFIVSEDGYVVTNHHVVEDAGKIHVTLHDGQKYTAKIIGLDPKTDLAVIKIQAKNLPFLTFGNSDQLQIGDWSIAIGNPFGLQATVTVGVISAKGRNQLHIVDFEDFIQTDAAINPGNSGGPLLNIDGQVIGVNTAIVSGSGGYIGIGFAIPSLMAKRVIDQLISDGQVTRGFLGVTLQPIDSELAACYKLEKVYGALITDVVKGSPAEKAGLRQEDVIVAYNGKEVESLSALRNAISLMMPGTRVVLKVVREGKFIEIPVTVTQIPAEDGVSALQKMGVRVQNLTPEICKKLGLASDTRGIFVVSVEAGSPAASAGVVPGQLILAVNRQRVSSVEELNQVLKNAKGENVLLMVSQGEVIRFVVLKSDE
In the case of B2, the “protease digestion of MOMP, SDS-PAGE/Coomassie, with DTT” value [2] is reported as “completely degrades MOMP protein in the presence of DTT (lane 7)”, the “protease digestion of MOMP, SDS-PAGE/Coomassie, without DTT” value [2] is reported as “strongly degrades MOMP protein in the absence of DTT (lane 5)” and the “protease digestion of BSA, SDS-PAGE/Coomassie, with DTT” value [1] is reported as “possesses a strong protease activity as it degrades the BSA substrate (lane 5)”.

B3: TC0210-(H143R) (protein)
chain: B2 chain with H127R
In the case of B3, the “protease digestion of MOMP, SDS-PAGE/Coomassie, with and without DTT” value [2] is reported as “does not degrade the MOMP protein, either in the presence of DTT (lane 8) or in the absence of DTT (lane 6)” and the “protease digestion of BSA, SDS-PAGE/Coomassie, with DTT” value [1] is reported as “does not degrade the BSA substrate (lane 3)”.
